The target of test [1] is HIV-1IIIB gp120/gp41 stably expressed on CHO cells (HIV-1 IIIB). The test is described as follows: cell-based or functional assay.
In test [2] the target is recombinant HIV-1 gp120 from the laboratory-adapted strain HIV-1LAI (HIV-1 LAI) (UniProt P03377). The test is described as follows: modified ELISA, gp120 captured on plate, 50% maximal binding. (In an ELISA, binding on a coated surface is turned into a signal by an enzyme label.)
In test [3] the target is recombinant HIV-1 gp120 from the primary isolate HIV-1JR-FL (HIV-1 JR-FL) (UniProt P20871). The test is described as above.

“And” between values parts separate entries of the source, which are not always exact repeats. Equal values may be shown once.

As usually defined, the EC50 is the concentration that produces a half-maximal response.

Consider “CD4-IgG2 chimeric heterotetramer (Fc fusion)”, for which, in test [1], the IC50 of syncytium inhibition (CHO cells expressing HIV-1IIIB gp120/gp41 with C8166 cells) is 9 nM and 1.81 µg/ml; the Relative Potency (mass), relative to sCD4, syncytium inhibition stood at 5.1 fold; the Relative Potency (molarity), relative to sCD4, syncytium inhibition amounted to 22.2 fold. The EC50 in test [2] was determined as 1250 pM. The EC50 in test [3] turned out to be 640 pM.

The values above are taken from patent US6451313.
